Consider 19 molecules from US20220144940A1 (VIELA BIO, published 2022).

Residue numbers refer to the chain shown, from its start. Values joined by “and” are separate entries in the source; they are usually repeats but may differ in a detail not shown here. Equal values may be shown once.

The chains are these.
B1: ILT70080.1 (antibody, V domains shown)
VH: QVQLVQSGAEVKKPGSSVKVSCKASGDSFRNYAVSWVRQAPGQGLEWMGAMMPSFGTREHSQQFQGRVTLTADESTSTAYMELSSLRSEDTAVYYCAGSRDYNAYHFWTGPPDFWGRGTLVTVSS
VL: SYVLTQPPSVSVAPGKTARITCGGDSVGSTSVHWYQQKPGQAPVMVMFYNSDRPSGIPERFSGSISGNTATLTISRVEAGDEADYYCQVWDTSSDHPEFGGGTKLTVL
notes: Engineered (germlined) variant of ILT70080, tested as IgG1
B2: ILT70080.2 (antibody, V domains shown)
VH: B1 VH with T71S
VL: B1 VL
notes: as for B1
B3: ILT70080.7 (antibody, V domains shown)
VH: B1 VH
VL: B1 VL with M45L, I65N
notes: as for B1
B4: ILT70080.3 (antibody, V domains shown)
VH: B1 VH with K13A, S16T, T71S
VL: B1 VL
notes: as for B1
B5: ILT70080.5 (antibody, V domains shown)
VH: B1 VH
VL: B1 VL with I65N
notes: as for B1
B6: ILT70080.4 (antibody, V domains shown)
VH: B1 VH with K13A, S16T, T71S
VL: B1 VL with V3E, R19K, T21S
notes: as for B1
B7: ILT70083.3 (antibody, V domains shown)
VH: EVQLLESGGGLVQPGGSLRLSCAASGFTFSSYAMSWVRQAPGKGLEWVSAISGSGGSTYYADSVKGWFTISRDNSKNTLYLQMNSLRAEDTAVYYCARRTYYYDSDGHSDVFDIWGRGTLVTVSS
VL: QSVVTQPPSVSAAPGQKVTISCSGSASNIGSNFVSWYQQLPGTAPKLLIYDNDKRDLGIPDRFSGSKSGTSATLGITGLQTGDEADYYCGTWDTSLTVGVFGGGTKLTVL
notes: Engineered (germlined) IgG1 variant of ILT70083
B8: ILT70083.1 (antibody, V domains shown)
VH: B7 VH
VL: B7 VL with G65A, K67I, G69S
B9: ILT70083.9 (antibody, V domains shown)
VH: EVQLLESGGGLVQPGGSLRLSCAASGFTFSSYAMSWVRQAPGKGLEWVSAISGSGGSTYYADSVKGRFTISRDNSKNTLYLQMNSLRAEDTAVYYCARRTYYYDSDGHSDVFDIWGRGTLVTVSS
VL: B7 VL with V4L
notes: as for B7
B10: ILT70083.6 (antibody, V domains shown)
VH: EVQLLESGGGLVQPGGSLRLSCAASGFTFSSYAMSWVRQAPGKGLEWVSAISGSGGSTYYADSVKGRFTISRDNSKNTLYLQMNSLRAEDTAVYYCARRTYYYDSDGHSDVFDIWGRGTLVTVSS
VL: B7 VL with G65A, K67I, G69S
notes: as for B7
B11: ILT70083.5 (antibody, V domains shown)
VH: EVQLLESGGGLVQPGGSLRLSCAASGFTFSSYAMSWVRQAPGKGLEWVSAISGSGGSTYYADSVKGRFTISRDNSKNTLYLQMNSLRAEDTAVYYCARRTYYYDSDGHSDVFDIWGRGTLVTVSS
VL: B7 VL with T43R, G65A, K67I, G69S, T73A, G75A, G82E
notes: as for B7
B12: ILT70083.7 (antibody, V domains shown)
VH: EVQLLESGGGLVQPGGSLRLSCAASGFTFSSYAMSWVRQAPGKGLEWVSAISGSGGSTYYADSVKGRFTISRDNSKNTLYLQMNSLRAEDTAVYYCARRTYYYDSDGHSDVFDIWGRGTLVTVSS
VL: B7 VL with V4L, G65A, K67I, G69S
notes: as for B7
B13: ILT70083.2 (antibody, V domains shown)
VH: B7 VH
VL: B7 VL with V4L, G65A, K67I, G69S
notes: as for B7
B14: ILT70083.8 (antibody, V domains shown)
VH: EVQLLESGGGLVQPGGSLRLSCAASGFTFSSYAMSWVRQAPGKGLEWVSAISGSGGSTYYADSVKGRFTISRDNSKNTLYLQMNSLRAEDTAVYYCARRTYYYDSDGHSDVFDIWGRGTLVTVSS
VL: B7 VL
notes: as for B7
B15: ILT70083.4 (antibody, V domains shown)
VH: B7 VH
VL: B7 VL with V4L
notes: as for B7
B16: ILT70142 (antibody, V domains shown)
VH: QVQLVQSGAEVKKPGASVKVSCKASGYTFTSYGISWVRQAPGQGLEWMGWISAYNGNTNYAQKLQGRVTMTRDTSISTAYMELSRLRSDDTAVYYCARNGLWGWDSDAFDIWGQGTTVTVSS
VL: QSVLTQPPSVSAAPGQKVTISCSGSSSNIGNNYVSWYQQLPGTAPKLLIYDNNKRPSGIPDRFSGSKSGTSATLGITGLQTGDEADYYCGTWDSSLSAGVFGTGTQLTVL
B17: ILT70052 (antibody, V domains shown)
VH: EVQLVESGGGLVKPGGSLRLSCEASGFTFTDYYMNWIRQAPGKGLEWISYISPGGTTVYYADSVKGRFTISRDNAKNSLYLQMNSLRVEDTAVYYCARDISGYGDWFDPWGKGTLVTVSS
VL: QSVVTQPPSASGTPGQRVTISCSGSSSNIGSNTVNWYQLLPATAPRILIYNNNQRPSGVPDRFAGSKSGTSASLAISGLQSEDEADYYCGAWDDSLNSPVFGGGTKLTVL
B18: ILT70100 (antibody, V domains shown)
VH: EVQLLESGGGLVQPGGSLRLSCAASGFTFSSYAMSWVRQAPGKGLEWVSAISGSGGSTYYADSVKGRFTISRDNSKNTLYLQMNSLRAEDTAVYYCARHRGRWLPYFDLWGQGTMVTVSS
VL: DIQLTQSPSSLSASVGERVTITCQASQDIRSYLNWYQQKPGKAPKLLIYDVSNLETGVPSRFSGSGSGTEYTFSISSLQPEDFATYYCQQYDKAPLTFGGGTKVEIK
B19: ILT70144 (antibody, V domains shown)
VH: B16 VH
VL: B16 VL

For one assay, the target named is T1, HA-tagged human ILT7 on CT-550 cells (human, UniProt P59901 24-499). As to the kind of experiment: cell-based or functional assay.
T1 sequence (P59901 24-499): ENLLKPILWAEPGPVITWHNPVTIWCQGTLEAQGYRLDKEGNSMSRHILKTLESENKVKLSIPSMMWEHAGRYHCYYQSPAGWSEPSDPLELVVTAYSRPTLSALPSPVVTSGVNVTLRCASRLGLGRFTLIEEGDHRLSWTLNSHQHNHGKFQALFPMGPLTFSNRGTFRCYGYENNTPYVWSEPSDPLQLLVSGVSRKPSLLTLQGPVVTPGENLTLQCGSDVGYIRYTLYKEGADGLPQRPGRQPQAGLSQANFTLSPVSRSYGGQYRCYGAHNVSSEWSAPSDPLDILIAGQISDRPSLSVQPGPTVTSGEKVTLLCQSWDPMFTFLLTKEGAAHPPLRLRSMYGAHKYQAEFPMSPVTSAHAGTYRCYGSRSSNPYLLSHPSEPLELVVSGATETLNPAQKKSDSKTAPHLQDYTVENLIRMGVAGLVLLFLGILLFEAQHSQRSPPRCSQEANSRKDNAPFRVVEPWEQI
Regarding B1, the “ADCC EC50” value was < 0.0141 nM and 0.008 nM and 0.01 nM.
Same read-out and setting: to B2 belongs less than 0.0141 nM; to B3, < 0.0141 nM and 0.0078 nM.
Take B4: the “ADCC EC50” value was < 0.0141 nM and 0.011 nM.
Still for that read-out and setting: under B5 stands < 0.0141 nM and 0.0086 nM; under B6, < 0.0141 nM and 0.0119 nM; under B7, greater than 0.089 nM.
Still for that read-out and setting: under B8 stands greater than 0.089 nM; under B9, greater than 0.089 nM.
Regarding B10, the “ADCC EC50” value was greater than 0.089 nM.
On the same count and under the same terms, under B11 stands greater than 0.089 nM; under B12, greater than 0.089 nM.
Still for that read-out and setting: to B13 belongs greater than 0.089 nM; to B14, greater than 0.089 nM; to B15, greater than 0.089 nM.

The target of a further assay is T2, cynomolgus ILT7 (cynomolgus, UniProt P59901 24-499 (human entry)). As to the kind of experiment: cell-based or functional assay.
T2 sequence (P59901 other isoform, or with tags, fused parts or gaps limits assumed): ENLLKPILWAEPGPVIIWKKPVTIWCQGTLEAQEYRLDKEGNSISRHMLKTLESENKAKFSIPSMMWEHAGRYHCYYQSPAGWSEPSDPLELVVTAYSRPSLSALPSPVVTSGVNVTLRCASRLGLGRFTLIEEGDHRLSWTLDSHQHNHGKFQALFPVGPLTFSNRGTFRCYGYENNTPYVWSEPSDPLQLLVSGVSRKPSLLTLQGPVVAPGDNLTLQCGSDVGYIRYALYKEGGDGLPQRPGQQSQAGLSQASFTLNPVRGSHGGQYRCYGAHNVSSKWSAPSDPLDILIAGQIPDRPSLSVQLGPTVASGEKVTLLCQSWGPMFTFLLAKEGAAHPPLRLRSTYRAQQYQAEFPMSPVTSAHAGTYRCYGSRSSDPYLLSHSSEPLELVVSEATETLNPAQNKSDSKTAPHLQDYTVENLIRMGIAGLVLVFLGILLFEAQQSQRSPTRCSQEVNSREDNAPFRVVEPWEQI
As for B16, the “ADCC EC50” value worked out at 0.058 nM.
Turning to B17, the “ADCC EC50” value came out at 0.073 nM.
As to B18, the “ADCC EC50” value worked out at 0.188 nM.

Another assay concerns the target T2, cynomolgus ILT7. Put plainly: flow cytometry on CynoILT7 CT-125 cells. As for the experimental part: (§1) Binding of anti-ILT7 variants and isotype controls on human and cynomolgus ILT7 was assessed by flow cytometry analysis using CT-550 and cynoILT7 CT-125 cells respectively. CT-125 cells were used as control. Cells were resuspended in Blocking Buffer (PBS supplemented with 10% FBS) at a concentration of 5 million cells per mL and transferred into a round-bottom 96-well plates (BD Falcon™ Clear Microtest Plate, BD Biosciences) at 100 μL per well. Anti-ILT7 variants and control antibodies were added onto the cells for 30 min at 4° C. on a plate shaker. Cells were washed three times with PBS and resuspended in Blocking Buffer (100 μL/well). Human IgG binding on cell surface was detected using a secondary anti-human IgG antibody conjugated to DyLight 649 (1 in 1000 dilution). Cells were incubated in the dark for 30 min at 4° C. on a plate shaker. Cells were washed three times with PBS and surface fluorescence was acquired using LSRII Flow Cytometry System and FACSDiva Software (both from BD Biosciences).
In order to determine the binding EC₅₀ of the variants on cells expressing cynomolgus ILT7, the antibodies were screened for binding on CynoILT7 CT-125 cells by flow cytometry. […] The graph in FIG. 3 represents the mean results from two independent experiments, and the table in FIG. 3 show the average EC₅₀.
Turning to B19, the EC50 came out at 7.81 nM.
Consider B17, for which the 50% effective concentration (EC50) came out at 0.35 nM.
Same read-out and setting: under B18 stands 1.63 nM.

A further assay has as its target T1, HA-tagged human ILT7 on CT-550 cells. Put plainly: flow cytometry on CT-550 cells (human ILT7), top panel, table 'Ec50 (pM)'. As to the method:
as §1
Take B1: the EC50 came to 0.201 nM.
Turning to B2, the EC50 is 0.225 nM.
In the case of B3, a half-maximal effect (EC50) was put at 0.229 nM.
On the same count and under the same terms, to B4 belongs 0.198 nM.
Same read-out and setting: to B5 belongs 0.503 nM.
For the molecule B6, the 50% effective concentration (EC50) is 0.337 nM.

For a further assay the target is unchanged. As to the kind of experiment: flow cytometry on human ILT7-expressing cells, top panel, table 'Ec50 (pM)'.
Regarding B7, it took 0.596 nM to reach a half-maximal effect (EC50).
Same read-out and setting: under B9 stands 0.54 nM; under B10, 0.516 nM; under B11, 0.5 nM.
Still for that read-out and setting: under B12 stands 0.905 nM.
With B13, the EC50 worked out at 0.863 nM.
On the same count and under the same terms, to B14 belongs 0.437 nM; to B15, 0.353 nM.

Another assay concerns the target T2, cynomolgus ILT7. Put plainly: flow cytometry on cynomolgus ILT7-expressing cells, bottom panel, table 'Ec50 (pM)'. As to the method: as §1
Molecule B7 showed an EC50 of 0.777 nM.
The molecule B9 came in with a 50% effective concentration (EC50) of 0.957 nM.
Molecule B10 came in with a concentration for a half-maximal effect (EC50) of 1.6 nM.
B11 came in with a concentration giving a half-maximal response (EC50) of 2.28 nM.
Same read-out and setting: under B12 stands 9.47 nM; under B13, 15 nM; under B14, 0.711 nM.
B15 returned a concentration giving a half-maximal response (EC50) of 0.62 nM.

A further assay deals with T2, cynomolgus ILT7. As to the kind of experiment: flow cytometry on CynoILT7 CT-125 cells (cynomolgus ILT7), bottom panel, table 'Ec50 (pM)'. As to the method: as §1
As to B1, a half-maximal effect (EC50) was put at 0.463 nM.
In the case of B2, the 50% effective concentration (EC50) stood at 0.503 nM.
Still for that read-out and setting: under B3 stands 0.405 nM.
Same read-out and setting: under B4 stands 0.467 nM; under B5, 0.612 nM.
The same measure, in the same setting: to B6 belongs 0.597 nM.

The target of a further assay is T1, HA-tagged human ILT7 on CT-550 cells. As to the kind of experiment: flow cytometry on CT-550 cells expressing human ILT7, anti-human IgG DyLight 649 detection; table 'Mean Ec50 (nM)', n = 2. As to the method: as §1
In order to determine the binding EC50 of ILT70019, ILT70028, ILT70052, ILT70076, ILT70080, ILT70083, ILT70089, ILT70100, ILT70137, ILT70142 and ILT70144 on cells expressing human ILT7, the candidates were screened for binding on CT-550 cells by flow cytometry. ILT70080 (EC₅₀=0.28 nM), ILT70083 (EC₅₀=0.37 nM), ILT70137 (EC₅₀=0.41 nM), ILT70144, ILT70142, ILT70052, and ILT70100 bound to human ILT7-expressing cells. […] The anti-ILT7 antibodies 7C7 (7C7 is described above in Example 1) and SBI33 (SBI33 refers to the anti-ILT7 antibody ILT7#33 provided in U.S. Published Application No. 2009/0280128) were used as positive controls.
Molecule B16 yielded a concentration for a half-maximal effect (EC50) of 2.03 nM.
B19 returned an EC50 of 1.7 nM.
The same measure, in the same setting: under B17 stands 23.1 nM; under B18, 180 nM.
